From patent USRE47223 (Genentech, dated 2019) come the findings set out here.

Assay [1] addresses T1, CA125, human TAT10772 shed antigen (human, UniProt Q8WXI7 1-14451, limits assumed).
T1 construct: domain: entire shed antigen; Bought reagent; also called CA125 polypeptide
Nature of the assay: ELISA, IgG, CA125. For orientation: In an ELISA, binding on a coated surface is turned into a signal by an enzyme label.

The target of assay [2] is T2, 5-domain TAT10772 (human).
T2 construct: Recombinant portion of the extracellular domain, expressed in CHO cells; also called 5-mucin domain
T2 chain: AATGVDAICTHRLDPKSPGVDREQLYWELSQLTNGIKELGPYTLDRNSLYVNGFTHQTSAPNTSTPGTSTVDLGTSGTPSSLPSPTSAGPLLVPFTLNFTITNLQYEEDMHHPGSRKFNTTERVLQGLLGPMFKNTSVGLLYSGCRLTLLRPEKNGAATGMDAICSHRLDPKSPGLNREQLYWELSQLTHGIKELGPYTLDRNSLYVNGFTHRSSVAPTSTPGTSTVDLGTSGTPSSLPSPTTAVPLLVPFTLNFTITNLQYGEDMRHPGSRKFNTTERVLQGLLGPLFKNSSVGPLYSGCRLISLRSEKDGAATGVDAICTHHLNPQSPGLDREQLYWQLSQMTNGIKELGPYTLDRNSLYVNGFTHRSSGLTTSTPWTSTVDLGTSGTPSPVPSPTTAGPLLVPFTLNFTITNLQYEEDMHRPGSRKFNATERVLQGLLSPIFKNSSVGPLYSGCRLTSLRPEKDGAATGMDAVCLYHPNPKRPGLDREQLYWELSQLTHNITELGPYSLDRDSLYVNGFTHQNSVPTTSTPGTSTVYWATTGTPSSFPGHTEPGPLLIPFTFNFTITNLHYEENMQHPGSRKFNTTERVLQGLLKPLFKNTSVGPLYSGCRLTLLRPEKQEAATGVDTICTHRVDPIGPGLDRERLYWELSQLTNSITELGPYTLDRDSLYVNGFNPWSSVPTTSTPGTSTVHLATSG
Nature of the assay: ELISA, IgG, 5′-domain TAT10772.

Assay [3] has as its target T3, TAT10772 polypeptide (human).
T3 construct: Cell-surface TAT10772 on engineered PC3 cells (PC3/A5.3B2), OVCAR-3, OVCA-432, SK-OV-3 cells and tumor tissue; also called TAT10772 target polypeptide
Description: ELISA on OVCAR-3 cells, IgG.

The target of assay [4] is T2, 5-domain TAT10772. Description: Biacore SPR, 5′-domain TAT10772 over immobilized IgG. (In general: In SPR one partner is held on a chip, and binding of the other changes the refractive index at the surface.)
Assay [5] addresses T3, TAT10772 polypeptide. Description: Scatchard analysis, IgG.
Assay [6] has as its target T3, TAT10772 polypeptide. Nature of the assay: Scatchard analysis, IgG; form of TAT10772 not stated.
Assay [7] addresses T3, TAT10772 polypeptide. Nature of the assay: Western blot, ELISA, FACS of TAT10772-expressing cells and/or immunohistochemistry. For orientation: In western blotting, separated proteins are transferred to a membrane and probed.

Numbering of substitutions follows the chain as printed.

For orientation: Kd means the constant that tells how readily two partners part at equilibrium. Lower therefore signals tighter binding. The term koff denotes a measure of how fast the partners let go of each other. Low values mean a long-lived complex, high ones a short-lived complex. The kon is the second-order rate constant of association. High values mean fast association, low ones slow association.

B1: 3A5v1 (SEQ ID NO: 198) (antibody, V domains shown)
VH: EVQLVESGGGLVQPGGSLRLSCAASGYSITNDYAWNWVRQAPGKGLEWVGYINYSGYTTYNPSLKSRFTISRDTSKNTLYLQMNSLRAEDTAVYYCARWASGLDYWGQGTLVTVSS
VL: DIQMTQSPSSLSASVGDRVTITCKASDLIHNWLAWYQQKPGKAPKLLIYGATSLETGVPSRFSGSGSGTDFTLTISSLQPEDFATYYCQQYWTTPFTFGQGTKVEIKR
notes: Humanized IgG
In the case of B1, the Kd was 0.6 nM in assay [1], 3 nM with 5-domain TAT10772 [2], 0.5 nM in the assay with TAT10772 polypeptide [3] and 4.8 nM with 5-domain TAT10772 [4]. Besides, the koff in the assay with 5-domain TAT10772 [4] was 0.000178 s⁻¹. In the assay with 5-domain TAT10772 [4], the kon was 36900 M⁻¹ s⁻¹.

B2: 3A5v6 (SEQ ID NO: 203) (antibody, V domains shown)
VH: B1 VH with L79F, A100D, D104T
VL: B1 VL
notes: Humanized IgG
Consider B2, for which the Kd in assay [1] worked out at 4.4 nM; in the assay with 5-domain TAT10772 [2], 5.7 nM; with TAT10772 polypeptide [3], 0.6 nM.

B3: 3A5.F-graft (SEQ ID NO: 13), IgG (antibody, V domains shown)
VH: B1 VH with T74N, L79F, A100D, S101G, D104T
VL: B1 VL
notes: IgG
As to B3, the dissociation constant Kd in assay [1] is 51.4 nM; in the assay with 5-domain TAT10772 [2], 90.3 nM; with TAT10772 polypeptide [3], 0.6 nM; with 5-domain TAT10772 [4] it was 10 nM. The molecule also registered a koff with 5-domain TAT10772 [4] of 0.000292 s⁻¹. The on-rate (kon) with 5-domain TAT10772 [4] amounted to 28500 M⁻¹ s⁻¹.

B4: 3A5v4b.54 (SEQ ID NO:209) (antibody, V domains shown)
VH: B1 VH with S55A, A100T
VL: B1 VL
Turning to B4, the binding result with TAT10772 polypeptide [5] is listed as “binds”.

B5: 3A5v1b 54 (SEQ ID NO: 207) (antibody, V domains shown)
VH: B1 VH with S55A
VL: B1 VL
notes: Humanized IgG, 3A5.v1 with the CDR-H2 glycosylation site removed at position 54
As for B5, the dissociation constant Kd with TAT10772 polypeptide [6] came out at 0.37 nM. That is a sub-nanomolar value.

B6: 3A5v2 (SEQ ID NO: 199) (antibody, V domains shown)
VH: B1 VH with L79F, D104S, Y105H
VL: B1 VL
notes: Humanized IgG
For the molecule B6, the dissociation constant Kd amounted to 0.8 nM in assay [1], 3.7 nM in the assay with 5-domain TAT10772 [2], 0.7 nM with TAT10772 polypeptide [3] and 3.6 nM with 5-domain TAT10772 [4]. The molecule further yielded a koff in the assay with 5-domain TAT10772 [4] of 0.000121 s⁻¹. The same molecule showed an on-rate (kon) with 5-domain TAT10772 [4] of 33400 M⁻¹ s⁻¹.

B7: 3A5v5 (SEQ ID NO: 202) (antibody, V domains shown)
VH: B1 VH with L79F, A100D, S101A, D104T
VL: B1 VL
notes: Humanized IgG
With B7, the Kd in assay [1] is 8.2 nM; with 5-domain TAT10772 [2], 10.2 nM; with TAT10772 polypeptide [3], 0.6 nM.

B8: 3A5v7 (SEQ ID NO: 204) (antibody, V domains shown)
VH: B1 VH with A100K, Y105S
VL: B1 VL
notes: Humanized IgG
Turning to B8, the equilibrium dissociation constant (Kd) is 1.2 nM in assay [1], 3.3 nM with 5-domain TAT10772 [2] and 0.8 nM with TAT10772 polypeptide [3].

B9: 3A5v1b 52 (SEQ ID NO: 206) (antibody, V domains shown)
VH: B1 VH with N53S
VL: B1 VL
notes: Humanized IgG, 3A5.v1 with the CDR-H2 glycosylation site removed at position 52
B9 gave a Kd with TAT10772 polypeptide [6] of 0.47 nM.

B10: 3A5v8 (SEQ ID NO: 205) (antibody, V domains shown)
VH: B1 VH with A100T, Y105S
VL: B1 VL
notes: Humanized IgG
As to B10, the Kd in assay [1] came to 0.4 nM; with 5-domain TAT10772 [2], 2.6 nM; with TAT10772 polypeptide [3] it was 0.5 nM; with 5-domain TAT10772 [4], 2.3 nM. This molecule also returned a dissociation rate constant (koff) in the assay with 5-domain TAT10772 [4] of 0.000127 s⁻¹. In the assay with 5-domain TAT10772 [4], this molecule had an association rate constant (kon) of 55100 M⁻¹ s⁻¹.

B11: 3A5v4b 52 (SEQ ID NO: 208) (antibody, V domains shown)
VH: B1 VH with N53S, A100T
VL: B1 VL
notes: Humanized IgG, 3A5.v4 with the CDR-H2 glycosylation site removed at position 52
On to B11, for which, in the assay with TAT10772 polypeptide [6], binding was characterised by a dissociation constant (Kd) of 0.46 nM.

B12: 3A5.L-graft (SEQ ID NO: 12), IgG (antibody, V domains shown)
VH: B1 VH with T74N, A100D, S101G, D104T
VL: B1 VL
notes: IgG
B12 gave a Kd in the assay with TAT10772 polypeptide [3] of 7.1 nM.

B13: 3A5v4 (SEQ ID NO: 201) (antibody, V domains shown)
VH: B1 VH with A100T
VL: B1 VL
notes: Humanized IgG
Turning to B13, the values for the Kd (in assay [1]; in the assay with 5-domain TAT10772 [2]; with TAT10772 polypeptide [3]) were 0.3 nM, 2.4 nM and 0.8 nM, respectively.

B14: 3A5v3 (SEQ ID NO: 200) (antibody, V domains shown)
VH: B1 VH with L79F, D104S
VL: B1 VL
notes: Humanized IgG
Consider B14, for which the equilibrium dissociation constant (Kd) was 0.5 nM in assay [1], 1.6 nM with 5-domain TAT10772 [2], 0.2 nM with TAT10772 polypeptide [3] and 3.6 nM with 5-domain TAT10772 [4]. The molecule also displayed a dissociation rate constant (koff) with 5-domain TAT10772 [4] of 0.00013 s⁻¹. Further, the kon in the assay with 5-domain TAT10772 [4] came to 36200 M⁻¹ s⁻¹.

B15: murine 3A5 anti-TAT10772 antibody (antibody, V domains shown)
VH: DVQLQESGPGLVNPSQSLSLTCTVTGYSITNDYAWNWIRQFPGNKLEWMGYINYSGYTTYNPSLKSRISITRDTSKNQFFLHLNSVTTEDTATYYCARWDGGLTYWGQGTLVTVSA
VL: DIQMTQSSSFLSVSLGGRVTITCKASDLIHNWLAWYQQKPGNAPRLLISGATSLETGVPSRFSGSGSGNDYTLSIASLQTEDAATYYCQQYWTTPFTFGSGTKLEIK
notes: Murine monoclonal antibody from hybridoma; also called monoclonal antibody 3A5; monoclonal antibody 3A5.3
Regarding B15, in the assay with TAT10772 polypeptide [7], the binding result is listed as “binds”.

B16: 3A5 chimera (mu3A5-H; SEQ ID NO: 11) (antibody, V domains shown)
VH: B15 VH
VL: B1 VL
notes: IgG; also called chimeric 3A5; chimeric antibody
Take B16: the Kd in the assay with TAT10772 polypeptide [6] is 0.57 nM; in assay [1], 0.3 nM; in the assay with 5-domain TAT10772 [2], 2.3 nM; with TAT10772 polypeptide [3], 0.3 nM; in the assay with 5-domain TAT10772 [4], 2.7 nM. Also, in the assay with 5-domain TAT10772 [4], the koff was 0.000121 s⁻¹. The on-rate (kon) in the assay with 5-domain TAT10772 [4] is 44800 M⁻¹ s⁻¹.
